“Also recorded” adds a separate entry of the source.

A short description of data set [1]: Stability of acyl-CoAs in TCA and mutase assay buffer (HPLC). Type of data set: physicochemical. Particulars: five minutes under the mutase assay conditions, 30° C. The protocol:
To test whether acyl-CoAs degrade in TCA, the following tests were conducted. The CoA mix consisted of 1.6 mM each of malonyl-, methylmalonyl-, succinyl-, acetyl-, and propionyl-CoA, plus 0.5 mM CoA. An aliquot (10 μL) of this mix was added to 100 μL 10% TCA, 50 μL were immediately injected to the HPLC for CoA analysis, and the remainder was promptly frozen on dry ice. The frozen portion was then thawed and loaded immediately to the HPLC. Again, 10 μL of the CoA mix were added to 100 μL 10% TCA, 50 μL were left on ice for 15 minutes and then injected to the HPLC, the remainder was left at 4° C. overnight and injected to the HPLC the next morning. The area under each CoA peak was noted. This same procedure was followed but using a mixture of TCA and buffer A from the mutase assay.
The CoA analysis described here is carried out on cells which are lysed in 10% TCA. […] Thus, the CoAs are stable in TCA and in the mutase assay buffer after the cells are lysed or after the assays are completed, and prior to HPLC analysis.
Although the CoAs are stable in TCA and buffer at 4° C., they degraded at 30° C., the temperature at which the mutase assay was performed. In five minutes under the assay conditions, about 4% of the methylmalonyl-CoA hydrolyzed to CoA. […] Thus, the mutase assay is suboptimal for extremely quantitative results.

The nature of data set [2]: Spontaneous chemical epimerization between (R)- and (S)-mm-CoA. Format: physicochemical. Particulars: in 15 minutes.
Another data set concerns DEBS or DEBS1+TE. To be noted: cited from earlier work.
Substrate in data set [3]: C[C@H](C(=O)O)C(=O)SCCNC(=O)CCNC(=O)[C@H](O)C(C)(C)COP(=O)(O)OP(=O)(O)OC[C@H]1O[C@@H](n2cnc3c(N)ncnc32)[C@H](O)[C@@H]1OP(=O)(O)O
Briefly: Methylmalonyl-CoA epimerase steady state kinetics (transcarboxylase/malate dehydrogenase coupled assay, A340). Particulars: other: 30° C, pH 6.9, (2RS)-methylmalonyl-CoA 27 μM to 160 μM, (2R) concentration assumed one-half of (2RS), epimerase activated with CoCl2. Type of data set: biochemical, Streptomyces coelicolor. The protocol: (§1) Methylmalonyl-CoA epimerase assay. Enzyme activity was assayed at 30° C. using a modification of a reported method (27). The epimerase (0.54 mg/ml) was first activated with 100 μM CoCl2 at 4° C. for 1 h. Reaction mixtures (1.5 mL) contained 0.2 M potassium phosphate buffer pH 6.9, 0.1 M NH4SO4, 5 mM Na pyruvate, 0.08 mM (2RS)-methylmalonyl-CoA, 0.05 units transcarboxylase, 0.16 mM NADH, and 2.5 units of malate dehydrogenase. The reaction was initiated with (2RS)-methylmalonyl-CoA, and the decrease in A340 concomitant with consumption of the S-isomer was allowed to stabilize. Limiting epimerase was added to catalyze conversion of the remaining R- to S-isomer, and the initial rate and total decrease in A340 were monitored. For kinetic studies, -1.2 nM epimerase was incubated with varying amounts of (2RS)-methylmalonyl-CoA (27 μM to 160 μM). The (2R)-methylmalonyl-CoA concentrations were assumed to be one-half of the concentration of (2RS)-methylmalonyl-CoA.
S. coelicolor methylmalonyl-CoA epimerase gene. The P. shermanii methylmalonyl-CoA epimerase DNA sequence was used to search the S. coelicolor genomic database (www.sanger.ac.uk/Projects/S coelicolor) using the BLAST programs at the National Center for Biotechnology Information, NIH website (37), and S. coelicolor gene 8F4.02c was identified as a putative methylmalonyl-CoA epimerase. […]

Substrate in data set [4]: C[C@H](C(=O)O)C(=O)SCCNC(=O)CCNC(=O)[C@H](O)C(C)(C)COP(=O)(O)OP(=O)(O)OC[C@H]1O[C@@H](n2cnc3c(N)ncnc32)[C@H](O)[C@@H]1OP(=O)(O)O
Described as above. Type of data set: biochemical, Propionibacterium freudenreichii subsp. shermanii. Particulars: other: 30° C, pH 6.9, (2RS)-methylmalonyl-CoA 27 μM to 160 μM, (2R) concentration assumed one-half of (2RS), epimerase activated with CoCl2. The protocol:
as §1
Heterologous expression and purification of the epimerases. E. coli BL21(DE3) harboring either pKOS143-28-8 (P. shermanii epimerase) or pKOS117-174-A37 (S. coelicolor epimerase) was grown in 750 ml LB (100 μg/ml carbenicillin) at 37° C. until late log phase, then induced with IPTG to 1 mM final concentration and grown for an additional 3 h at 30° C. The cells were collected by centrifugation, and the pellets were stored at −80° C. […]

Data set [5] is described as follows: Methylmalonyl-CoA mutase assay in crude cell extracts (HPLC, conversion of methylmalonyl-CoA to succinyl-CoA). To be noted: cells grown without hydroxocobalamin; extracts not supplemented with B12. Format: biochemical. The procedure: The mutase assay was performed as follows. All operations were performed in the dark or under a red safelight. The pellet from 25 mL of culture was thawed, washed in buffer C (50 mM potassium phosphate pH 7.4, 5 mM EDTA, 10% glycerol), and resuspended in 0.5 mL of buffer C containing protease inhibitors (1 tablet per 10 mL of buffer). Following sonication on ice, the extract was clarified by centrifugation at 4° C. for 10 minutes at maximum speed in an Eppendorf microfuge; the supernatent was assayed. Enzyme assays contained, in a final volume of 100 μL, 0.2 mM (2R,2S)-methylmalonyl-CoA, mutase extract, and buffer C containing protease inhibitors. Reactions for assays with vitamin B12 were as above but contained 0.01 mM vitamin B12, in which case the mutase extract was incubated with the vitamin B12 in a total volume of 75 μL for 5 minutes at 30° C. prior to initiation of reaction with methylmalonyl-CoA. After the desired length of incubation at 30° C., the reaction was stopped by the addition of 50 μL of 10% trichloroacetic acid (TCA) and placed on ice for approximately 10 minutes. […] An aliquot (100 μL) of the supernatant was injected onto the HPLC to quantify conversion of methylmalonyl-CoA to succinyl-CoA. […]
Methylmalonyl-CoA mutase assay. […] After centrifugation, 100 μl of the supernatant was analyzed by HPLC to quantify conversion of methylmalonyl-CoA to succinyl-CoA.

In the case of `CC(C)(COP(=O)(O)OP(=O)(O)OC[C@H]1O[C@@H](n2cnc3c(N)ncnc32)[C@H](O)[C@@H]1OP(=O)(O)O)[C@@H](O)C(=O)NCCC(=O)NCCSC(=O)CCC(=O)O` [succinyl-CoA], in data set [1], the “hydrolyzed to CoA” value was “comparable rate”.
As to `CC(C(=O)O)C(=O)SCCNC(=O)CCNC(=O)[C@H](O)C(C)(C)COP(=O)(O)OP(=O)(O)OC[C@H]1O[C@@H](n2cnc3c(N)ncnc32)[C@H](O)[C@@H]1OP(=O)(O)O` (stereo partly drawn) [methylmalonyl-CoA], the “hydrolyzed to CoA” value in data set [1] is given as “about 4%”. Besides, the spontaneous chemical epimerization entry in data set [2] was “approximately 3%”.
For orientation: Km means the concentration of substrate that gives half-maximal velocity. Regarding `C[C@@H](C(=O)O)C(=O)SCCNC(=O)CCNC(=O)[C@H](O)C(C)(C)COP(=O)(O)OP(=O)(O)OC[C@H]1O[C@@H](n2cnc3c(N)ncnc32)[C@H](O)[C@@H]1OP(=O)(O)O` [(2S)-methylmalonyl-CoA], in the data set on DEBS or DEBS1+TE, the Michaelis-Menten constant (Km) was ~25 µM.

B1: Streptomyces coelicolor methylmalonyl-CoA epimerase, wild type, recombinant (gene 8F4.02c) (Streptomyces coelicolor A3(2)) (protein)
chain: MLTRIDHIGIACHDLDATVEFYRATYGFEVFHTEVNEEQGVREAMLKINDTSDGGASYLQLLEPTREDSAVGKWLAKNGEGVHHIAFGTADVDADAADIRDKGVRVLYDEPRRGSMGSRITFLHPKDCHGVLTELVTSAAVESPEH
notes: (2RS)-methylmalonyl-CoA substrate
What is called kcat is the number of substrate molecules converted per active site and unit of time at saturation. For the molecule B1, in data set [3], the Michaelis constant (Km) stood at 57 µM and the kcat amounted to 75 s⁻¹.

B2: Propionibacterium shermanii methylmalonyl-CoA epimerase (EC 5.1.99.1), wild type, recombinant, GenBank AY046899 (Propionibacterium freudenreichii subsp. … (protein)
chain: MSNEDLFICIDHVAYACPDADEASKYYQETFGWHELHREENPEQGVVEIMMAPAAKLTEHMTQVQVMAPLNDESTVAKWLAKHNGRAGLHHMAWRVDDIDAVSATLRERGVQLLYDEPKLGTGGNRINFMHPKSGKGVLIELTQYPKN
For B2, in data set [4], the Km was found to be 38 µM and the kcat is 150 s⁻¹.

B3: mutase: methylmalonyl-CoA mutase (EC 5.4.99.2) from P. shermanii, expressed in E. coli (protein, UniProt P11652 2-638; P11653 2-728, looked up)
Methylmalonyl-CoA mutase … 1: SSTDQGTNPADTDDLTPTTLSLAGDFPKATEEQWEREVEKVLNRGRPPEKQLTFAECLKRLTVHTVDGIDIVPMYRPKDAPKKLGYPGVAPFTRGTTVRNGDMDAWDVRALHEDPDEKFTRKAILEGLERGVTSLLLRVDPDAIAPEHLDEVLSDVLLEMTKVEVFSRYDQGAAAEALVSVYERSDKPAKDLALNLGLDPIAFAALQGTEPDLTVLGDWVRRLAKFSPDSRAVTIDANIYHNAGAGDVAELAWALATGAEYVRALVEQGFTATEAFDTINFRVTATHDQFLTIARLRALREAWARIGEVFGVDEDKRGARQNAITSWRDVTREDPYVNILRGSIATFSASVGGAESITTLPFTQALGLPEDDFPLRIARNTGIVLAEEVNIGRVNDPAGGSYYVESLTRSLADAAWKEFQEVEKLGGMSKAVMTEHVTKVLDACNAERAKRLANRKQPITAVSEFPMIGARSIETKPFPAAPARKGLAWHRDSEVFEQLMDRSTSVSERPKVFLACLGTRRDFGGREGFSSPVWHIAGIDTPQVEGGTTAEIVEAFKKSGAQVADLCSSAKVYAQQGLEVAKALKAAGAKALYLSGAFKEFGDDAAEAEKLIDGRLFMGMDVVDTLSSTLDILGVAK
Methylmalonyl-CoA mutase … 2: STLPRFDSVDLGNAPVPADAARRFEELAAKAGTGEAWETAEQIPVGTLFNEDVYKDMDWLDTYAGIPPFVHGPYATMYAFRPWTIRQYAGFSTAKESNAFYRRNLAAGQKGLSVAFDLPTHRGYDSDNPRVAGDVGMAGVAIDSIYDMRELFAGIPLDQMSVSMTMNGAVLPILALYVVTAEEQGVKPEQLAGTIQNDILKEFMVRNTYIYPPQPSMRIISEIFAYTSANMPKWNSISISGYHMQEAGATADIEMAYTLADGVDYIRAGESVGLNVDQFAPRLSFFWGIGMNFFMEVAKLRAARMLWAKLVHQFGPKNPKSMSLRTHSQTSGWSLTAQDVYNNVVRTCIEAMAATQGHTQSLHTNSLDEAIALPTDFSARIARNTQLFLQQESGTTRVIDPWSGSAYVEELTWDLARKAWGHIQEVEKVGGMAKAIEKGIPKMRIEEAAARTQARIDSGRQPLIGVNKYRLEHEPPLDVLKVDNSTVLAEQKAKLVKLRAERDPEKVKAALDKITWAAGNPDDKDPDRNLLKLCIDAGRAMATVGEMSDALEKVFGRYTAQIRTISGVYSKEVKNTPEVEEARELVEEFEQAEGRRPRILLAKMGQDGHDRGQKVIATAYADLGFDVDVGPLFQTPEETARQAVEADVHVVGVSSLAGGHLTLVPALRKELDKLGRPDILITVGGVIPEQDFDELRKDGAVEIYTPGTVIPESAISLVKKLRASLDA
As for B3, the mutase activity entry in data set [5] is listed as “no mutase activity was observed; also recorded: undetectable”.

The values are drawn from patent publication US20040005672A1, “Heterologous production of polyketides” (priority 2002, published 2004).
